The labels stand for the following.
B1: B1 (antibody, IgG1, V domains shown)
VH: QVQLVQSGGGVVQPGRSLRLSCAASGFIFNHYAMHWVRQAPGKGLEWVAHISSDGSYKFYADSVKGRFTVSRDNSDNTVYLQMNSLGPEDTAVYHCARFTEVLYYGADYWGQGTLVTVSS
VL: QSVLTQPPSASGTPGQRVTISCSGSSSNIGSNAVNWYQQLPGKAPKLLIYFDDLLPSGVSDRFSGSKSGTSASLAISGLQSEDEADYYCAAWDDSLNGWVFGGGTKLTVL
B2: D6 (antibody, IgG1, V domains shown)
VH: EVQLVQSGAEVKKPGSAVKVSCKASGGTFSSYAISWVRQAPGQGLEWMGGIIPILGTADYAQKFQGRVTITADESTSTAYMELSSLRSEDTAVYYCARDEIPLEYCTSTSCYHAFDIWGRGTMVTVSS
VL: AIQLTQSPSTLSASVGDRVTITCRASQSISSWLAWYQQKPGKAPKLLIYAASSLQSGVPSRFSGSGSGTDFTLTISSLQPEDFATYYCQQSYSTPLTFGGGTKVEIK
notes: also called EGFR-D6
B3: B4 (antibody, IgG1, V domains shown)
VH: B2 VH with E1Q, R120Q
VL: NIQMTQSPPSLSAFVGDRVTITCQASQAINNYLNWYQQKPGKAPKLLIYDASNLETGVPSRFSGSGSGTDFTFTISSLQPEDNATYYCQQYDKLPLTFGGGTKVEIK
notes: also called EGFR-B4
B4: A6 (antibody, IgG1, V domains shown)
VH: QVQLVQSGAEVKKPGSSVKVSCKASGGTFRNHAFSWVRQAPGQGLEWMGWISAYNGYTHYAEKLQGRVTMTTDTSTSTAYMELRSLRSDDTAVYYCARVSASYNSDWSLHYYYGMDVWGQGTTVTVSS
VL: QSVLTQPPSVSAAPGQEVTISCSGSNSNIGNNYVSWYQQLPGTAPKLLIYDNNERPSGIPDRFSGSKSGTSATLGITGLQTGDEADYYCGTWDSSLSAGVFGGGTKLTVL
notes: also called EGFR-A6; Clone A6
B5: D2 (antibody, IgG1, V domains shown)
VH: B1 VH with Q1E, Q6E
VL: QSVLTQPPSVSEAPRQRVSISCSGSSSNIGNNAVNWYQQLPGKAPKLLIYFDDLLPSGVSDRFSGSKSGTSASLAISGLQSEDEADYYCAAWDDSLKGYVFGTGTKVTVL
notes: also called EGFR-D2; Clone D2
B6: B5 (antibody, IgG1, V domains shown)
VH: QMQLVQSWAEVKKPGASVKVSCKASAYTFTNYYIHWVRQAPGQGLEWMGIINPSSGATTYAQRLQGRVIMTRDTSTSTVNMELSSLRSEDTAVYYCARSTLWFSEFDYWGQGTLVTVSS
VL: QSVLTQPASVSGSPGQSITISCTGTTSDVGGFNYVSWYQQHPGKVPKLIIFDVSNRPSSVSDRFSGSKSVNTASLTISGLQAEDEADYYCSSYTDSGSYIFGTGTKVTVL
B7: A5 (antibody, IgG1, V domains shown)
VH: B2 VH with S16A, A17S, R120Q
VL: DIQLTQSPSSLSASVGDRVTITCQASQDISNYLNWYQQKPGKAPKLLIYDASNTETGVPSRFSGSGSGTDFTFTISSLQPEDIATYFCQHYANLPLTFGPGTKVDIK
B8: D2GA2 (antibody, V domains shown)
VH: EVQLVESGGGVVQPGRSLRLSCAASGFIFHHYAMHWVRQAPGKGLEWVAHISPDGSSKFYADSVKGRFTVSRDNSKNTLYLQMNSLRAEDTAVYYCARFTEVLYYGADIWGQGTLVTVSS
VL: B5 VL
B9: D2GC1 (antibody, V domains shown)
VH: B8 VH with I109L
VL: B5 VL with F51Y
B10: D2GG1 (antibody, V domains shown)
VH: B8 VH with I28T, H30S, P53L, I109L
VL: B5 VL with F51Y
B11: D2GA6 (antibody, V domains shown)
VH: B8 VH
VL: B5 VL with S57Q
B12: D2GA5 (antibody, V domains shown)
VH: B8 VH with P53I, I109L
VL: B5 VL with F51Y
B13: D2GC4 (antibody, V domains shown)
VH: B8 VH with A33S, P53S, I109L
VL: QSVLTQPPSVSEAPRQRVSISCSGSSSNIGNNAVNWYQQLPGKAPKLLIYYDDLLPSGVSDRFSGSKSGTSASLAISGLQSEDEADYYCAAWDDSLKGYVFGTGTKVTV
B14: D2 GB8 (antibody, V domains shown)
VH: B8 VH with S57Y
VL: B5 VL with F51Y, D61N
B15: D2GA4 (antibody, V domains shown)
VH: B8 VH with P53S, I109L
VL: B5 VL with N31D, F51Y, L55H
B16: A6-A1 (antibody, V domains shown)
VH: QVQLVQSGAEVKKPGSSVKVSCKASGGTFRNHAWSWVRQAPGQGLEWMGWISAYNGYTHYASKLQGRVTMTTDTSTSTAYMELRSLRSDDTAVYYCARVSAEYAEDWSLHYYYMDVWGQGTLVTVSS
VL: B4 VL with G90S, G99V
B17: A6-A7 (antibody, V domains shown)
VH: B4 VH with F34Y, S102E, L109V, T123L
VL: B4 VL with N31P, G90S, W92F, G99A
B18: A6-A3 (antibody, V domains shown)
VH: B4 VH with F34W, H59T, E62S, S105E, T123L
VL: B4 VL with G30E, N31P, D51S, N52T, N53A, G90S, G99V
B19: A6-A5 (antibody, V domains shown)
VH: B4 VH with F34Y, E62S, N104A, T123L
VL: B4 VL with N52T, N53A, G90S, G99V, V100L
B20: A6-A4 (antibody, V domains shown)
VH: B4 VH with F34Y, H59T, E62S, T123L
VL: B4 VL with G30E, D51S, W92F, G99V
B21: A6-A8 (antibody, V domains shown)
VH: B4 VH with F34Y, H59T, S102E, N104A, S105E, T123L
VL: B4 VL with G30P, D51S, N53S, G90S, G99A, V100L

Residue numbers refer to the chain shown, from its start.

By EC50 is commonly meant the midpoint of the concentration-response curve. A word on the IC50: it is the midpoint of a concentration-inhibition curve. Lower therefore signals greater potency in that assay.

For one experiment, the target named is T1, EGFR expressed on the surface of cells (A431, A549, MCF7 and other EGFR-expressing cell lines) (human, UniProt P00533 25-1210).
T1 construct: whole, on cells; also called EGF Receptor; cell surface EGFR
The experiment can be described thus: binding of purified IgG to EGFR-expressing cell lines.
Consider B1, for which the binding result was “binds”.
Same read-out and setting: for B2 the value was “binds”; for B3, “binds”.

In the next experiment the target is T1, EGFR expressed on the surface of cells …. The experiment is described as follows: flow cytometry on A431 cells (FIG. 2 legend; the same experiment as paragraph 158, printed with another rounding); A431 cells; FIG. 2 legend.
Protocol: (§1) In this example, the experimental procedure was as follows: 50,000 A431 cells were aliquoted into the wells of a 96-well, v-bottom plate in 100 ul FACS Buffer (PBS+2% FBS). […] Cells were spun down, washed 1× with FACS Buffer, and then resuspended in 25 μl of antibody solution in triplicate. […] Cells were further incubated for 0.5 hr and then washed 1× with FACS Buffer. Cells were resuspended in 25 ul FACS Buffer and the median fluorescence intensity in the FL2-H channel was determined using the Intellicyt HTFC flow cytometer.
(§2) Data was analyzed and plotted in Graph Pad Prizm using non-linear regression fit. Data points are shown as the median fluorescence intensity (MFI) of positively labeled cells+/−Std Error.
As for B4, the EC50 amounted to 1.29 nM.

A further experiment has the same target. The experiment is described as follows: cell-based or functional assay.
Regarding B4, the “ADCC Reporter Bioassay (luciferase, RLU) on A431 target cells, EC50” value turned out to be 0.06 nM and the “decrease in EGF stimulated receptor phosphorylation assay in EGFR positive cells (A431)” value was approximately 10%.
Consider B5, for which the “ADCC Reporter Bioassay (luciferase, RLU) on A431 target cells, EC50” value was determined as 0.2 nM.
Take B6: the “decrease in EGF stimulated receptor phosphorylation assay in EGFR positive cells (A431)” value is approximately 10%.
On the same count and under the same terms, the same measure for B7: approximately 10%.

A further experiment has the same target. The experiment is described as follows: flow cytometry on A431 cells, blocking of biotinylated human EGF binding (competitor: Human EGF Biotinylated Fluorokine). (In general: Flow cytometry measures light scatter and fluorescence of single cells or particles in a stream.)
Protocol: Cells were finally resuspended in 25 μl FACS Buffer and the median fluorescence intensity in the FL1-H channel was determined using an Intellicyt HTFC flow cytometer. […] Data was analyzed and plotted in Graph Pad Prizm using non-linear regression fit. Data points are shown as the median fluorescence intensity (MFI)+/−Std Error.
Take B4: the IC50 was found to be 2.06 nM.
On the same count and under the same terms, the same measure for B5: 1.35 nM.

The next experiment has the same target. The experiment is described as follows: cell-based or functional assay. The source holds these as a separate data set.
For B8, the “IC50 (M), inhibition of EGF-stimulated EGFR auto-phosphorylation in A549 cells” value (shortened to “IC50 (M), inhibition”) is 1.8e-10 M.
On the same count and under the same terms, for B9 the value was 2e-10 M; for B10, 8.9e-10 M; for B11, 2.2e-10 M.
Same read-out and setting: for B12 the value was 2.3e-10 M.
As to B13, the “IC50 (M), inhibition” value was 2.8e-10 M.
On the same count and under the same terms, for B14 the value was 8.6e-10 M; for B15, 1.7e-10 M; for B5, 1.3e-09 M.

The next experiment has the same target. The experiment can be described thus: flow cytometry on A431 cells, 12-point titration, PE anti-human IgG.
Protocol: as §1, §2
Turning to B4, a half-maximal response (EC50) required 1.3 nM.
Still for that read-out and setting: for B5 the value was 0.28 nM.

A further experiment has the same target. The experiment can be described thus: cell-based or functional assay. The source holds these as a separate data set.
In the case of B4, the “IC50 (M), inhibition” value was found to be 1.1e-09 M.
B16: the “IC50 (M), inhibition” value was 5.1e-10 M.
Same read-out and setting: for B17 the value was 5.6e-10 M.
Take B18: the “IC50 (M), inhibition” value was 1.1e-09 M.
On the same count and under the same terms, the same measure for B19: 1.1e-09 M; for B20: 1.05e-09 M.
Same read-out and setting: for B21 the value was 6e-10 M.

For the origin of these results see patent publication US20130309233A1 (SORRENTO THERAPEUTICS, published 2013).
